What was measured:
Ku70 acetylation = Ku70 acetylation level in cells (Ku70 IP, panAc-K antibody blot); format: cell-based, human; details: HeLa cells, NAM 5 mM, TSA 1 μM, normalized to DMSO treatment
Procedure: Briefly, HeLa cells were grown under one of the following conditions: 0.10/6 DMSO, 1 μM TSA, 5 mM nicotinamide (NAM), or TSA and NAM. Ku70 was immunoprecipitated from whole-cell extracts and probed for lysine acetylation using a panAc-Lys Ab.
To determine which class of deacetylase targets Ku70 in vivo, cells were treated with either TSA or NAM and the acetylation level of Ku70 was detected using the panAc-K antibody.
For immunoprecipitation (IP) of Ku70, 1 mg of protein was precleared by incubation with protein A/G Sepharose beads (Santa Cruz). The supernatant was incubated with agarose-conjugated goat polyclonal anti-Ku70 antibody (Santa Cruz), followed by three washes in 1% triton in PBS. The immunocomplex was separated by SDS-PAGE and proteins were detected with a rabbit polyclonal anti-pan-acetyl-lysine (panAc-K) antibody raised against acetylated rabbit's serum.

293T cells = assay: Bax-mediated apoptosis in 293T cells transfected with YFP-Bax and Ku70 (apoptotic nuclei scored); format: cell-based, human; details: for effect on the ability of Ku70 to suppress Bax-mediated apoptosis: 293T cells cotransfected with YFP-Bax and Ku70, apoptotic nuclei scored 24 hr posttransfection
PCAF = target: T1, PCAF (Homo sapiens, UniProt Q92831); assay: In vitro acetylation assay of Ku70 peptides with PCAF HAT domain and 3H-acetyl-CoA; format: biochemical; parameters: key to Relative Intensity of Acetylation: +: Band intensity was measured using NIH ImageJ software and normalized to the intensity of peptide 3.; ++: Band intensity was measured using NIH ImageJ software and normalized to the intensity of peptide 3.; +++: Band intensity was measured using NIH ImageJ software and normalized to the intensity of peptide 3.; +++++: Band intensity was measured using NIH ImageJ software and normalized to the intensity of peptide 3; details: for acetylation of peptide by PCAF in vitro: HAT domain of PCAF, 3H-acetyl-CoA, autoradiography; for Relative Intensity of Acetylation: Ku70 peptides acetylated by PCAF in vitro, band intensity normalized to peptide 3
T1 construct: 100 ng of recombinant HAT domains of p300, PCAF, or CBP
Procedure: FIG. 2B is a schematic representation of the synthetic peptide library spanning the entire length of Ku70. Each peptide was incubated with PCAF and 3H-acetyl-CoA and analyzed as in FIG. 2A.
(§1) FIG. 2C is a series of photographs showing acetylation peptides 16 and 29 as resolved by SDS-PAGE (PCAF reaction, left panel; CBP reaction, right panel). The acetylated domain of p53 (aa 315-325) served as a positive control for acetylation.
(§2) FIG. 2D is a photograph showing acetylation results of a series of scanning synthetic peptides of peptide 29. These scanning synthetic peptides were synthesized, with three out of the four lysines (K) substituted for arginine (R), a residue that cannot be acetylated. Peptides were incubated in acetylation reactions with PCAF or CBP and resolved by SDS-PAGE as above.
(§3) Due to the strong interaction between Ku70 and CBP and the efficient acetylation of Ku70 in vitro, we sought to define the regions of Ku70 that are targeted for acetylation. A library of 31 peptides was synthesized to cover the entire Ku70 sequence (FIG. 2B). Each of these peptides was incubated in an acetylation reaction as above, with either the HAT domain of PCAF or CBP. Again, a p53 peptide served as a positive control. […] Peptide 29 ([…]541-562), which contains four lysines (K542, K544, K553, and K556), is located within the C-terminal flexible linker region that we had previously identified as a potential target for acetylation (see FIG. 1 B).
(§4) To determine which lysines in peptide 29 were being acetylated in the reaction, a series of substitutions were made in which three out of the four lysines were replaced with arginine, a residue that cannot be acetylated. Each peptide was then incubated with either PCAF or CBP and analyzed by autoradiography as above.
(§5) Protein acetyltransferase assays were performed in 30 μl of reaction buffer containing 50 mM HEPES (pH 8.0), 10% glycerol, 1 mM DTT, 1 mM PMSF, 10 mM Na-butyrate, 1 μL (3H]-acetyl-CoA, 1 μg recombinant Ku70/80 complex or Ku70 peptide, and 100 ng of recombinant HAT domains of p300, PCAF, or CBP. Reactions were incubated at 30° C. for 1 hr and separated by SDS-PAGE (10%), stained with Coomassie blue, treated with EN^3HANCE autoradiography enhancer (NEN), dried, and exposed to film for 3-7 days. p53 peptides used as positive controls were p53315-3235 and p53377-389.

CBP = target: T2, CBP (Homo sapiens, UniProt Q92793); assay: In vitro acetylation assay of Ku70 peptides with CBP HAT domain and 3H-acetyl-CoA; format: biochemical; details: autoradiography
T2 construct: 100 ng of recombinant HAT domains of p300, PCAF, or CBP
From the text: as §1, §2, §3, §4, §5

T1 sequence (Q92831 503-651 limits assumed): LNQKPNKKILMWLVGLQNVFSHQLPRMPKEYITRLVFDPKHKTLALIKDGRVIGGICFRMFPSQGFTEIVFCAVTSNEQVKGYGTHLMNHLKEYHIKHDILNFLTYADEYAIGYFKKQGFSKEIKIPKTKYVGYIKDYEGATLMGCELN
T2 sequence (Q92793 1323-1700 limits assumed): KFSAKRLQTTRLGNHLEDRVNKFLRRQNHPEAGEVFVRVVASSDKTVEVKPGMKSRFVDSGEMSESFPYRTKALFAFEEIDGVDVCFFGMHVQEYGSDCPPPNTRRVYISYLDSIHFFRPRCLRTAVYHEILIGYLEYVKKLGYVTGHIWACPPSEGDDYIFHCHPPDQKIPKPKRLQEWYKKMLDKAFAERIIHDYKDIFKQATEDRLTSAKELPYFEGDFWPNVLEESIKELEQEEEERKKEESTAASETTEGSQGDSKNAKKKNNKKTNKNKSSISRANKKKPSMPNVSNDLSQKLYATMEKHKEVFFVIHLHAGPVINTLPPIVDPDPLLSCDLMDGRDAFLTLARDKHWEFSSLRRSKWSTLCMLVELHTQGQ

Compound: NC(=O)c1cccnc1 [NAM, nicotinamide]
- increase in total acetylation level of Ku70 (Ku70 acetylation): 1.8 fold
- effect on the ability of Ku70 to suppress Bax-mediated apoptosis (293T cells): abrogated the ability of Ku70 to suppress apoptosis

Compound: CC(/C=C/C(=O)NO)=C\[C@@H](C)C(=O)c1ccc(N(C)C)cc1 [TSA, trichostatin A]
- increase in total acetylation level of Ku70 (Ku70 acetylation): 2.4 fold
- effect on the ability of Ku70 to suppress Bax-mediated apoptosis (293T cells): apoptosis suppression was completely blocked

Compound: Oc1ccc(/C=C/c2cc(O)cc(O)c2)cc1 [resveratrol, 3,5,4′-Trihydroxy-trans-stilbene]
- suppression of Bax-mediated apoptosis (293T cells; 293T cells, YFP-Bax and Ku70, resveratrol 0, 50 or 100 nM added 12 hrs after transfection, scored 24 hrs post-transfection): dose-dependent suppression of Bax-mediated apoptosis

Compound: ASKAMFESQSEDELT [Peptide 3, Ku70 peptide, amino acids 44-58]
- acetylation of peptide by PCAF in vitro (PCAF): acetylated by PCAF
- Relative Intensity of Acetylation (PCAF): +

Compound: KRRR: peptide 29 variant retaining K542, the other three lysines replaced with arginine (TKRRHDNEGSGSRRPRVEYSEE)
- acetylation of peptide by PCAF in vitro (PCAF): acetylated to almost the same extent as the original peptide 29
- acetylation of peptide by CBP in vitro (CBP): acetylated to almost the same extent as the original peptide 29

Compound: LLLPSDTKRSQIY [Peptide 15, Ku70 peptide, amino acids 310-322]
- acetylation of peptide by PCAF in vitro (PCAF): acetylated by PCAF
- Relative Intensity of Acetylation (PCAF): +++

Compound: RQIILEKEETEELKRFD [Peptide 16, Ku70 peptide, amino acids 325-341]
- acetylation of peptide by PCAF in vitro (PCAF): strongly acetylated
- Relative Intensity of Acetylation (PCAF): +++
- acetylation of peptide by CBP in vitro (CBP): strongly acetylated

Compound: RRKR: peptide 29 variant retaining K553, the other three lysines replaced with arginine (TRRRHDNEGSGSKRPRVEYSEE)
- acetylation of peptide by PCAF in vitro (PCAF): weakly acetylated
- acetylation of peptide by CBP in vitro (CBP): weakly acetylated

Compound: TKRKHDNEGSGSKRPKVEYSEE [Peptide 29, Ku70 peptide, amino acids 541-562]
- acetylation of peptide by PCAF in vitro (PCAF): strongly acetylated
- Relative Intensity of Acetylation (PCAF): +++++
- acetylation of peptide by CBP in vitro (CBP): strongly acetylated

Compound: VQFKMSHKRIMLFTNED [Peptide 8, Ku70 peptide, amino acids 157-173]
- acetylation of peptide by PCAF in vitro (PCAF): acetylated by PCAF
- Relative Intensity of Acetylation (PCAF): ++

Source: US20060084085A1, “Methods and compositions for modulating Bax-mediated apoptosis” (priority 2004, published 2006)
